According to the supplement of paper PMC12636428:

System: Saccharomyces cerevisiae
Experiment: transcriptional activation domain activity (GFP:mCherry ratio, weighted mean of sorted bins, harmonized to initial dataset scale) (arbitrary fluorescence ratio units); higher = stronger transcriptional activation
Details: beta-estradiol 1 µM; induction time 4 h
Procedure: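 53-aa protein tiles (fungal proteins plus yeast TF control tiles) fused C-terminally to a DBD-estrogen-binding domain-mCherry synthetic TF, integrated in S. cerevisiae (URA3 locus) with a GFP reporter. Cells were induced with 1 uM beta-estradiol for 4 h at 30 C, FACS-sorted into 8 bins by GFP:mCherry ratio and barcodes sequenced. Activity is the read-weighted mean bin fluorescence (GFP:mCherry), averaged over barcodes (median 12); tiles under 50 reads were discarded. New active-learning values were harmonized by linear fit onto the scale of the initial (Hummel et al.) dataset. The assay saturates at low and high signal.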

Sequence | transcriptional activation domain activity
MRNDRGERKKEKRRREARERKKKERKGRREKGGKRKEEDEEKGRGGRGRRNGG | 28600
MCLSFFVFLLYIYQITFSYLLSIMSQLELCRDCFFGPLALLLVIVILSSLCMY | 69700
ISVLLVPYAWAILLAFLLLPVFLCVICMDWTYIPFYLPFFPMIGVFSIVIPLF | 21100
SRVMRHFSAVEAGCFLWIWILVRIEGGMLLVNLYLDTTRITSTILNLYTACTG | 78500
VEFLFPIYATVAFTTLGCISMFALPYAVLTILPNFYLNCPYGTPLSGVTWRLS | 61600
MVCFKRSGLSLVFFFFFFFFFLLLVFFLFFFSLLLPIIISLVVRADLLMVHPH | 31200
TRSFNIMLGMVTFWGVFSLFAIAFQCGLPAPWVFIPSECPTGGYLYYPVIILN | 56000
LALIRGGSHVGQVTFDRHSIASEGVVWCLAVKFKGVTLNLSWSEAVYRWFHVL | 57300
MSNTYRFVMEEPAEAGKGQQKKRARLVTACDNCRNKKIKCLRTPVSGTCESCK | 27900
MLMDLALTLDDLTVRSLSVVGASVFMAFTYATLPATLGWGTWFLLSVWTLIFY | 64200
GCKRESQEREEDKNIEKIRKKKQSVVNRKSKRRSETNRRNIKRNNRQHAARER | 55600
RKKSALEEEERKEKENDELEKKGKRKEEKEEKRRRGKGEKKGKEIRKEKEEKE | 25300
YFRAEAMKTFFSRNYWQLEVRLYVPTKRKGIFHGKDWRINVLLGMWWVVVHIA | 55100
MGRVGGLFIMEGCLCVYRLLLYPSSCVWVSDTRGWLWLWWLWWWVVVVVWGVC | 44600
FFFFLLFFPLPFFPSSFPFFFLIHLLISSSLVFPFSSSSSSLTQVFWCLCFFF | 57400
LVHGRWSYQRVADMHANFFYKNVIWTFGLFWYLPFNSFDATYLYHYTFILLCN | 61000
AAATATGAAPPGAPGEGPPKVKRGRKPKPKNLPPSDPNASTTATPGTSAPGSQ | 32500
GDGTPTLSWRHDLGGGEVRDLEVTVVKVHSGEVTLLSSATLKLVLVFHLSSTI | 43400
WSVFFFFFFFFCLNLSVLWLWFFRLFFFFFFLCAFDVLCLPLSCPPLFRPKAT | 48200
MSFLYFIRCFVSFHLELLDCYYMMIECLFIFLIFCITICLPFICLYSLLVECF | 49800
TAGAATNNKRNRLKVNGKVFTRLDVIGRGGSSRVYRVMAENSKIFALKRVSLD | 35800
ARWSVAKVFYILGRYYGLFYMIVQLYISLTLDLALNVQRLLLVLDLVWRCCLY | 54000
SGNTGENEEDIAFASGLNGGTFDSMLEALPDDLYFTDFVSPFTAAATTSVTTK | 85100
MLMFLRCGLGLRFGVLVCGCRSTFVCWSLQRAFANMLRARSLPWIFLAWVILL | 76000
MADQPQGRKPNNRRPRHRGRGGGAGGGGNGGGNGGGEDGGNEGGRGGRRGGRG | 33900
CVFRLGFLFIFLVSYSIAWEWFFLFSLWHLCLLPLDIISIFLLFLGPLLWRSF | 31500
LMILMIINFIILNIPVAVILLIYFVFKIGFYVFIWKRIRFISILLRATVSHLR | 62900

Sequence | transcriptional activation domain activity
MAGVGYYDLKQLMMVFLLVWLLAICVGPWYQGCFSPSFLLFCFYQPYIFISFL | 52900
SSSEDESDEEDEEGLGSDVEIHDQAEPAEDVPAGEVSRRFAVVNLDWDHVRAV | 32200
IDPHGYDANGLYEIGTIVSSIAVCVANFFVVFSLYSYTWIQALVISLSILVYY | 45700
PATTSPAPRGLTASGQPRKKPGPKPKLKDPNAPEPEKKARKARKVVEAKDPAV | < 6570
MLKLCFFCAFLFLFLIIYYIYIFCFFFPFSLPSFSFFSFIPALIFFFFVVVEP | 48200
SPSSQTTSSTTVVLVFGSDEKRVKEVGDGLKSKLAVKGGGKGTRWSGKYTGVW | 32000
LASRNPPTATSPCTRTPAPAPAPRTASTTRASTPCTASTAPRAATSAACSPAA | 53100
ACVALVVLFADSLDDLIPGWGIVAWKIVCGFILVPLGFLPLRLLSFTSILGVM | 58500
SYWLTIQRYGGWFPNRVQSSSTSFSVFLHFSNPFWLHGWWLLCCLLRLASFVL | 79900
MFLKSELHFNEPLQHILISFIFLSCLSNLALMIFSVVYKVYILLALIMLVYAN | 51900
EGDSDEEGDEDMYQQVDMNDVMDGVLEGMDNMGEERLNRGRARLKIHTGGPGK | 37300
MHKCCLLDFLMLSTNYADVFYFHKLCIILTSFFSRLNPLLSIGLNLLLFCLLI | 57000
GNTGAGGEALVRSVGGSSAVEYPVCVEMDVVSGADGGEKLVWRTACDSRFVDG | 44800
ASGAKTVVKKEPASATPEPAPKQAEVKKPAAAEAAPVPAAKAAPALASAAAAA | 43400
DPQTLSVAHRSYLRCLTQRLLLTQPTFTECMYNLLIHTDHLVALIHRLDGVWS | 38400
LRLIWVYLYRCHESGSTVTSKLESLLKHFFPPNRLIVVPQEERLEPFVCIVHF | 53100
MWGRWVGWSLIFLELYLDHLILQFIPPTRFIVTLFFFFSFLFIWYFCLLSLSL | 28800
ESKDKSKEGKSKRGDKTLDTKGKSEEENKKGGDKKDEKKKDEKKKEEEEKEKA | 25400
MIIVRSIFYCLGLIALLEFMLIRVASAFAISSLLTNLAYNKPFFLTYLSCATH | 67100
TSFVLYLKLNQVIAFSLRTIYSINKSKILLGFVGQQWEQHIVSELDSALNKWV | 37900
MGTLLFVFMYYGWAFFLDYFIWCFVVSLCFWYKVCLAVLLLAFDVYCHLWCMI | 60200
MFCLRSWLPLLFIPTNAPPVFVFLFFACTFFLSRPCVYCSFLLLILFFTSCYW | 52700
MFCLRSWIPVLFFLLRTHASPVYLVLFISATYFLNRPCVYCSLLLFILVVALF | 84400
SRREDGVKVEDADDGGVSLEKGVEDLNIDNNNGKKEKGGVFVHCAAGKSRSVS | 43100
GEGEAKTKKRNKRSKAPVEGEAAETPAAATTEGEEAAAPAAPKKEKKPRKPRA | 8960
YLVMVYAWILWLSLVVLLALIAFYLFMVIWNIDRGTPSPVCLVVFCMQFICTL | 44200
ARVLRWCLTMICLTVSALLGRVILFSSAALTLVEILHDDFGFSRNLVLKNLCN | 90400

Sequence | transcriptional activation domain activity
MFFLFFLLVSWWLCYLLLMASSFLIVGGMYLLALCPPLGCIGDLVVPFYFLFL | 81700
TAKLLLEDSMKKKRQEIQQLEQATHQRSNLETTHLLDIDWDALLDPSDTLNFM | 90000
IEGPTLSDWFRIFERAFSLRELHWVYNYEDSYAMKPDRVIVLLNLWQLVAPNV | 42800
TNPDKIRLIPGFKYLQLVLGRDQYCREILAMMARMGFLMPKTMYSTLLRLWLL | 65200
TLGFVVDRYFRVKNFVPEPFWTIKVMHHKDGKKVNFNWARHRLFDRMSVIILY | 64300
LALQRMDWHSVFRKTFYESRSWLHLLTNFSRIWIMHISAFWYYMAANIDFFYR | 56400
SPTLSHCTDYRTPALAYNILITCSLFLLFRPKPLILFWCLVCIGFWHVALFSQ | 52500
MLLTVYMFIIVFSFFICYHYINLVLQILIAGLLYGLSYVRFSMNWIIYFYNQC | 78400
PSDSRSRSRSRSASRKRGGAGRGGRSDSSDSEGDNSRRRQVSPARRRQRPARG | 38300
DLLFNVAAFVFVGAWTPFNQFSDPALSLSVWRLIVIAILVLLLRRLPAIIALY | 27800
AKEDEGEKGKNKDKSKKEEEKKEEGEKKEEGEVKGVKEVEELKVEQPKEEVKL | 17700
AAGKAGKGGKGAGKAGKGAGKGKGGKRGGKGGKGAKAAGKGAAKAASQAAAAS | 37100
LTPFSPPHFPLFLPSILFSFPPPLSSHFLLFPYALSPLLLLLFPPLCSSQFTP | 45700
MNDKVVSCETRRRRKAREGREKRGKGEERGEKREGRRERGEREREKRKERGRE | 25300
TVQLLKLFCAFSSLSSILIALLLQTPYYLATTWGTLLRRYIIFFSFPLINSIS | 54200
VVLSVLCSLLNTTLKYNPASWRVPYDHVVFKDSKQILVTYCLQLLLVLILYPI | 44500
IIPKIYFYGGYKGLLLFISSLSLTLLCYILITRPILSFLIVSDIVLNVIINIY | 63400
MYQIEALYLILTYKSIPFYHFNYFSIELIIKPTYLFLYLFFSYLFLHWLNLFD | 35100
FWPWTFWPWIFWTFGLFGLGLFGLGLFGFFGLFGPLDFLDFLDFLALDFLDFL | 37000
MWVTQHCLLATQWALLCVPPFRGLLLLLLFLYVFKFLFGLRIFILYLVSMLVM | 46100
PKVLYILARYLGIIYISLFLGLRWSHFPIFVMKVNNLAYFVNALLYYTWIIIT | 33800
DRMYNQISQVFDHLYARQDRTWGRVAEDFRSVLLIRWYFDAASLWVTLWCRYT | 48600
LFLLLMFQGLDIFTPGIRVLHFRICLLLLLLIILLAVPLLFSYIHLTAFTIFY | 59100
FHRGGSNGSNSNNNNNAGDLQHHQHAGINKTTANVSEKYHWNRIKGTVTDVIE | 28300
LLESLGHDDSLEFFFVSGMLRYVRFGFWRRIIGYQFRNLRTQITRSIYYDWYR | 45500
